T1: hTEM8(ED)-Fc fusion protein (UniProt Q9H6X2 33-321)
T1 chain: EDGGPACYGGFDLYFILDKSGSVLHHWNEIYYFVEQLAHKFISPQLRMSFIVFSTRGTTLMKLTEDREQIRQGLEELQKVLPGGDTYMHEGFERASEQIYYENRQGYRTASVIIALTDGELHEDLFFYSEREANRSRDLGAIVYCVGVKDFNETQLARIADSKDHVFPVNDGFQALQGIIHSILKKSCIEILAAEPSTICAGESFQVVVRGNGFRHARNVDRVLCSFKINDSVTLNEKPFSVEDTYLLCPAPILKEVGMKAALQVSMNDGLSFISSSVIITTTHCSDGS

B1: L2 Fab (Fab, V domains shown)
VH: QVQLKESGPALVKPTQTLTLTCTFSGFSLSTSGGGVSWIRQPPGKALEWLAHIYSNDDKSYSTSLKTRLTISKDTSKNQVVLTMTNMDPVDTATYYCARGGYFLDYWGQGTLVTVSS
VL: DIELTQPPSVSVAPGQTARISCSGDNIGGIYVHWYQQKPGQAPVLVIYADSKRPSGIPERFSGSNSGNTATLTISGTQAEDEADYYCQSYDITSLVFGGGTKLTVL
B2: L2 (Fab, V domains shown)
VH: B1 VH
VL: B1 VL
B3: L1 (Fab, V domains shown)
VH: QVQLVESGGGLVQPGGSLRLSCAASGFTFNSYAMSWVRQAPGKGLEWVSLISSGSSTYYADSVKGRFTISRDNSKNTLYLQMNSLRAEDTAVYYCARAGFKFDNWGQGTLVTVSS
VL: DIELTQPPSVSVAPGQTARISCSGDSIPNYSVSWYQQKPGQAPVLVIYADSNRPSGIPERFSGSNSGNTATLTISGTQAEDEADYYCQSYDNTSPDLVFGGGTKLTVLG
B4: L1 Fab (Fab, V domains shown)
VH: B3 VH
VL: B3 VL
B5: L5 (Fab, V domains shown)
VH: QVQLVESGGGLVQPGGSLRLSCAASGFTFNSYGLSWVRQAPGKGLEWVSNISSNGSYTYYADSVKGRFTISRDNSKNTLYLQMNSLRAEDTAVYYCARAGYGLFDVWGQGTLVTVSS
VL: DIELTQPPSVSVAPGQTARISCSGDKLREYYVHWYQQKPGQAPVLVIYGDNKRPSGIPERFSGSNSGNTATLTISGTQAEDEADYYCSSWAGSRSGTVFGGGTKLTVL
B6: L3 Fab (Fab, V domains shown)
VH: QVQLQQSGPGLVKPSQTLSLTCAISGDSVSTNGAAWGWIRQSPGRGLEWLGRIYYRSKWYNDYAVSVKSRITINPDTSKNQFSLQLNSVTPEDTAVYYCARMPGGFLFDLWGQGTLVTVSS
VL: DIELTQPPSVSVAPGQTARISCSGDNIRSYYAHWYQQKPGQAPVLVIYGDSKRPSGIPERFSGSNSGNTATLTISGTQAEDEADYYCSSYASHDYVFGGGTKLTVLG
B7: L3 (Fab, V domains shown)
VH: B6 VH
VL: B6 VL

Columns and labels:
[1] = molecular target: human TEM8 on CHO cells (CHO-TEM8) (UniProt Q9H6X2 33-564); experiment: flow cytometry, inhibition of PA-FITC binding
mTEM8 = experiment: ELISA
[2] = molecular target: T1, hTEM8(ED)-Fc fusion protein; experiment: ELISA

Binder | EC50 [1] [µg/mL] | EC50 (mTEM8) [nM] | EC50 [2] [nM]
B1 | 0.0218 |  | 
B2 |  | 0.28 | 
B3 |  | 0.21 | 
B4 | 0.0342 |  | 0.18
B5 |  | 0.22 | 
B6 | 0.0364 |  | 
B7 |  | 0.36 | 
